Results reported in IntAct's records for PubMed 19942853.

B1: Cullin-associated NEDD8-dissociated protein 1 homolog (Saccharomyces cerevisiae), Q92325 (parent)
chain: MSLHISKLIEQYRSTKDNDLKYMLLRQNFKINDIEDELAPLVNELLLPVLVEEQDMEILNLVSFQVLPDLVLSMISDPAAAQLGWVISLICDPLLNQSMIHANRSFVLIETLRNVLQKIENSPHLDYHQPVNSSLEFISKFIVEMKRHMCDVDAAQLSHSLSESNMLIYIESLNLLLKFSFFSDAASPSVMVTLPFDILNDVFTIAQDYSATNTNESIDRITEKLLLTSTQLTHPVDLENLCPKMKYNTLAAVSRIWYKFGPIVDKLFTNRLLPVLFPPQMGEECNVEDVLEIVHNFHPYFSIRRLKDNRPLLSDSTISQLREGLFGMLSILNDSLTRTQNENDHGSDNLIDSDDGFGSDNDPEQQAYLDELVSEGYDENMYDGDTDDEDADDINVEKNDEATKDITETNKILLIFSELHYPQEERFSELLVELQTKIAINTSLIDKILSKETTELPTHNGEIADLNEILNEVKGNKPIRKNVIFCTLAHTLSLQSGSELSVLQLSIEVIDHLLVKNHSNNITRGEQFQLIKLILPHLKTNKSFIDTLKAGNFTQKIDEGVTLRTMILSLLLQLFPLDYSMLGEILPTIARYSVRDKDLGVRDLSFQLLDQILRTYYNYLIGIDWEWYKDDFYQVLQETCIKKDINTNLLLQFPPYLPHD
partner: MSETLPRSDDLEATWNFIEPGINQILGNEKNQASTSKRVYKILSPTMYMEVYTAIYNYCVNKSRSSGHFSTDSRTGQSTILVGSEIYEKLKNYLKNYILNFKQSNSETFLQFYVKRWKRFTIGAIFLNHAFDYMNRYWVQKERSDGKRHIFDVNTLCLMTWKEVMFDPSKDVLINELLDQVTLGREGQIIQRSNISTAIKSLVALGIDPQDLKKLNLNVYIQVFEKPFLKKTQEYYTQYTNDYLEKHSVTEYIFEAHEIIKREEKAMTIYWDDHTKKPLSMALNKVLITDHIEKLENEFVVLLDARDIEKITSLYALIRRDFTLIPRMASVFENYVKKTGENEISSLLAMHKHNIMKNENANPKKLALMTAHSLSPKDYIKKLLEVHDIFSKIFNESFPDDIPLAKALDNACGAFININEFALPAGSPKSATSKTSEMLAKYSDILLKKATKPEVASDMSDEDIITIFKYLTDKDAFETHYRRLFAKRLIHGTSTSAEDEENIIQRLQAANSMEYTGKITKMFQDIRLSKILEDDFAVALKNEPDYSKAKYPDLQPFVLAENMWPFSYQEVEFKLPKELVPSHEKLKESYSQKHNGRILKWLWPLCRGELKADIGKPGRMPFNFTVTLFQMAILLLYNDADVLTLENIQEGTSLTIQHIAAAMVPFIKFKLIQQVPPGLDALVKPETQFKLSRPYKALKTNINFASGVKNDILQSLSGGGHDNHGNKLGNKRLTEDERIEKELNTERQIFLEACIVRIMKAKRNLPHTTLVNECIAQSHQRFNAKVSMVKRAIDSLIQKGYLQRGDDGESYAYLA

Variants of: B1
Settings: with cdc53_yeast CDC53, Q12018
M23A was tested, and the “effect of a mutation on the interaction” value was “disrupting interaction”.
In the case of Y22A, the “effect of a mutation on the interaction” value is reported as “disrupting interaction”.
With D17A the “effect of a mutation on the interaction” value was “disrupting interaction”.
D19A was tested, and the “effect of a mutation on the interaction” value was “disrupting interaction”.

Variants of: B1
Settings: with cdc53_yeast CDC53, Q12018
Remark: another data set of the same source
For G551A, the “effect of a mutation on the interaction” value was “decreasing interaction”.
In the case of N552A, the “effect of a mutation on the interaction” value is reported as “decreasing interaction”.
